Source: patent US20260042849A1, “PROTEASE-CLEAVABLE MOIETIES AND METHODS OF USE THEREOF” (CytomX Therapeutics, Inc., priority 2022, published 2026)
Where “and” joins values, the source holds several entries; their conditions need not be identical. Equal values may be shown once. Ends that are not written are not given here.

Legend:
MMP14 [1] = molecular target: T1, MMP14 (Homo sapiens, UniProt P50281); experiment: In vitro cleavability of activatable antibodies, capillary electrophoresis; assay type: biochemical; design: key to Cleavability (%) 4h MMP14: “—” indicates below limit of quantification; settings: for Cleavability (%) 4h MMP14: 500 nM activatable antibody, 10 nM protease, 4 hours at 37° C.
[2] = mouse
MMP2 [3] = molecular target: T2, MMP2 (Homo sapiens, UniProt P08253); experiment: In vitro cleavability of activatable antibodies, capillary electrophoresis; assay type: biochemical; design: purchased R&D Systems 902-MP; settings: 500 nM activatable antibody, 10 nM protease, 4 hours at 37° C.
T2 sequence (P08253 110-660): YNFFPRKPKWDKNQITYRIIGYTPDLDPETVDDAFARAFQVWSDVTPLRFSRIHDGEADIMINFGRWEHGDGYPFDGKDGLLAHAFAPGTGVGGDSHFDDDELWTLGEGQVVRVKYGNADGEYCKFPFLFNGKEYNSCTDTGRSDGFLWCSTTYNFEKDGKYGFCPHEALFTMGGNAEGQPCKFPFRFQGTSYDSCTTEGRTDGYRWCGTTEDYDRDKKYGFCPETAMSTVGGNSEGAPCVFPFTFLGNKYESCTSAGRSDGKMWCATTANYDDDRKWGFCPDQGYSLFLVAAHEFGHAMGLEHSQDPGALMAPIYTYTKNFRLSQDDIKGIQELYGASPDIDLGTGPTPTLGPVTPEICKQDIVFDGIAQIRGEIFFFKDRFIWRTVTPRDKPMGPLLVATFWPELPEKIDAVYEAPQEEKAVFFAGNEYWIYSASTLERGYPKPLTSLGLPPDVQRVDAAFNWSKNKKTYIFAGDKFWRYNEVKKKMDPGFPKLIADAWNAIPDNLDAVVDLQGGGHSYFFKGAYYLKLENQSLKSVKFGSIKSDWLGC

MMP9 [4] = molecular target: T3, MMP9 (Homo sapiens, UniProt P14780); experiment: as above; assay type: biochemical; design: purchased R&D Systems 911-MP; key to Cleavability (%) 4h MMP9: “—” indicates below limit of quantification; settings: 500 nM activatable antibody, 10 nM protease, 4 hours at 37° C.
MT-SP1 [5] = molecular target: T4, MT-SP1 (Homo sapiens, UniProt Q9Y5Y6); experiment: as above; assay type: biochemical; design: purchased R&D Systems 3946-SEB; settings: 500 nM activatable antibody, 10 nM protease, 4 hours at 37° C.
T4 sequence (Q9Y5Y6 615-855 limits assumed): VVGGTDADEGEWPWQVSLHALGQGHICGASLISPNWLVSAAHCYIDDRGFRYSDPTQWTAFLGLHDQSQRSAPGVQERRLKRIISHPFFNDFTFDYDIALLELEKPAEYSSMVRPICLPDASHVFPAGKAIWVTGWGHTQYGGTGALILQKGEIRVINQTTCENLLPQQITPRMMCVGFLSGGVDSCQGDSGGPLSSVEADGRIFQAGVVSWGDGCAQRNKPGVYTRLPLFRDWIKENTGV
Protocol: The studies provided herein evaluate the in vitro cleavability of activatable antibodies containing exemplary CMs that include a substrate cleavable by a matrix metalloprotease (MMP) and/or a substrate cleavable by a matriptase (MT-SP1).
Each activatable antibody (500 nM) was incubated with 10 nM of the indicated single protease for 4 hours at 37° C. Human recombinant proteases were purchased from R&D Systems: MT-SP1 (catalog No: 3946-SEB), MMP2 (catalog No: 902-MP), MMP9 (catalog No: 911-MP), and MMP14 (catalog No: 918-MP). […] Protease concentrations were determined by active site titration. Activity assays were performed in the following buffers: 50 mM TRIS-HCl (pH 7.4), 150 mM NaCl, 0.05% Tween 20 for MT-SP1, 50 mM Tris-HCl, 10 mM CaCl2), 150 mM NaCl, 0.05% (w/v) Brij-35, pH 7.5 for MMP2 and MMP9, and 50 mM HEPES (pH 6.8), 10 mM CaCl2), 0.5 mM MgCl2 for MMP14. Following incubation, the presence of cleavage product was determined by capillary electrophoresis for each protease enzyme using a LabChip GXII Touch system (Perkin Elmer) with the HT Protein Express 100 protocol (Perkin Elmer). LabChip GXII Touch HT Chips (Perkin Elmer #760499) were set up using the protocol of the Protein Express Assay Reagent Kit (Perkin Elmer #CLS960008).

MMP14 [6] = molecular target: T1, MMP14; experiment: Internally quenched peptide probe cleavage assay (Example 8); assay type: biochemical; settings: 20 μM peptide probe, 20 nM protease, 37° C.
Excerpt: (§1) The study provided herein evaluated the cleavability kinetics (i.e., pM/s and kcat/KM (M^−1 s^−1) of CMs with matriptase (MT-SP1) and matrix metalloprotease (MMP) 2 (MMP2), MMP9, and MMP14. The CMs listed in Table 10 below were presented in an internally quenched peptide probe format, rather than included in an activatable antibody format. In the internally quenched probes, the CM sequence was positioned between a 7-methoxycoumarin-4-acetyl (MCA) fluorophore and a 2,4-dinitrophenyl (DNP) quencher such that cleavage of the CM sequence produced a fluorescence signal. The probes were of the following designs: (MCA)-Gly-Ser-X1-X2-Pro-X3-Gly-Leu-X4-X5-Gly-Ser-Lys (DNP)-D-Arg (SEQ ID NO: 178) where X1 is Arg or is absent, X2 is Ser or is absent, X3 is Met or Trp, X4 is Lys, Arg, or is absent, and X5 is Ser or is absent; (MCA)-Ser-X1-Pro-X2-Gly-Leu-X3-X4-Gly-Ser-Lys (DNP)-D-Arg (SEQ ID NO: 179) where X1 is Ala, X2 is Met, X3 is Lys, and X4 is His; and (MCA)-Gly-Ser-Pro-X1-Gly-Leu-X2-Gly-Gly-Ser-Lys (DNP)-D-Arg (SEQ ID NO: 180) where X1 is Met and X2 is Lys, as indicated in Table 10. The cleavage rates (pM/s) were measured using 20 μM internally quenched peptide probe and 20 nM MT-SP1, MMP2, MMP9, or MMP14. Cleavability kinetics (i.e., pM/s and kcat/KM (M^−1 s^−1)) were measured at 37° C. in 96- or 384-well plate format in the following buffers: 50 mM TRIS-HCl (pH 7.4), 150 mM NaCl, 0.05% Tween 20 for MT-SP1, 50 mM Tris-HCl (pH 7.5), 10 mM CaCl2, 150 mM NaCl, 0.05% (w/v) Brij-35 for MMP2 and MMP9, and 50 mM HEPES (pH 6.8), 10 mM CaCl2), 0.5 mM MgCl2, 0.05% (w/v) Brij-35 for MMP14. Cleavability kinetics were determined on an Infinite 200 PRO (Tecan) multimode plate reader using a fluorescence excitation wavelength of 320 nm and an emission wavelength of 405 nm.

MMP2 [7] = molecular target: T2, MMP2; experiment: as above; assay type: biochemical; settings: 20 μM peptide probe, 20 nM protease, 37° C.
Excerpt: as §1

MMP9 [8] = molecular target: T3, MMP9; experiment: as above; assay type: biochemical; settings: 20 μM peptide probe, 20 nM protease, 37° C.
Excerpt: as §1

MT-SP1 [9] = molecular target: T4, MT-SP1; experiment: as above; assay type: biochemical; settings: 20 μM peptide probe, 20 nM protease, 37° C.
Excerpt: as §1

recombinant EGFR = recombinant EGFR (Homo sapiens, UniProt P00533); experiment: Solid-phase binding assay (ELISA) of anti-EGFR activatable antibodies; settings: compared to activatable antibodies with control CM 2001

T3 sequence (P14780 107-707 limits assumed): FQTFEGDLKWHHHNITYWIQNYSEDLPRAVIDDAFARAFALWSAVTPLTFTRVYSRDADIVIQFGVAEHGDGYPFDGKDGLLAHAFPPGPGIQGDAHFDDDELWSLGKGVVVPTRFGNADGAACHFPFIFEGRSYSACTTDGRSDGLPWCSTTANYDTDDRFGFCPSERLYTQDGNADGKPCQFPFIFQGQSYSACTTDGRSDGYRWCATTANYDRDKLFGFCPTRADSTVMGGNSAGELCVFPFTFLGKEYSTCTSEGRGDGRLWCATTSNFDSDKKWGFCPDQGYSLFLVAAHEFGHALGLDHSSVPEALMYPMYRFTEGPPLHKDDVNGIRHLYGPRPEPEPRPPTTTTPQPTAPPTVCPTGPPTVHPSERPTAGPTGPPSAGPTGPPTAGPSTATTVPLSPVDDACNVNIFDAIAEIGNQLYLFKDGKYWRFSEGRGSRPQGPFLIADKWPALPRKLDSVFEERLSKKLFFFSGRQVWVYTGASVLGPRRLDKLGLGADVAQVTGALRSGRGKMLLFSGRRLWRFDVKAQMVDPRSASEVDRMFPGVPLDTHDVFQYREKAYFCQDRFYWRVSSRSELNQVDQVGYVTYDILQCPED

Substance	Cleavability (%) 4h MMP14 (MMP14 [1])	Cleavability (%) 4h MMP2 (MMP2 [3])	Cleavability (%) 4h MMP9 (MMP9 [4])	Probe Cleavage (pM/s) MMP14 (MMP14 [6])	Probe Cleavage (pM/s) MMP2 (MMP2 [7])	Probe Cleavage (pM/s) MMP9 (MMP9 [8])	Probe Cleavage (pM/s) MT-SP1 (MT-SP1 [9])	other results
GPWGLL [CM 7043]	77.6%	86.0%	96.2%					in vivo stability versus control CMs [2]: higher in vivo stability; In Vivo % Activation (nu/nu, day 7) ([2]; ip, 10 mg/kg): 44%
GPYGLL [CM 7048]	66.3%	96.1%	98.3%					
ISSGLLSGRSDNH [CM 2001, reference compound]	82.2% and 80.2% and 92.9%	50.6% and 44.1% and 52.2%	—					Cleavability (%) 4h MT-SP1 (MT-SP1 [5]): 30.5%
PMGLK (also: internally quenched fluorophore/quencher probe, groups not placed) [CM 7019, tested as internally quenched peptide probe]				5950 pM/s	4690 pM/s	6080 pM/s	46.1 pM/s	
PMGLKS (also: internally quenched fluorophore/quencher probe, groups not placed) [CM 7018, tested as internally quenched peptide probe]				153000 pM/s	119000 pM/s	133000 pM/s	14100 pM/s	
PWGL [CM 7041, also tested as internally quenched peptide probe]	—	15.8%	12.3%					
PWGLRS [tested as internally quenched peptide probe]				4380 pM/s	3800 pM/s	3830 pM/s	1230 pM/s	
PWGLS [CM 7045]	15.6%	40.2%	74.5%					percent activation for MMP14 (MMP14 [1]; Tables 6A-6C, activatable antibody format): greater than 10%; effect of CM on apparent masking efficiency (recombinant EGFR): increasing the apparent masking efficiency
PYGL [CM 7047, also tested as internally quenched peptide probe]	—	27.5%	19.2%					
RSPWGL [tested as internally quenched peptide probe]				9580 pM/s	11700 pM/s	25500 pM/s	2390 pM/s	
